Molecular target: nAChRs on CA1 hippocampal interneurons (not stated (rat brain slices in the text, NMRI mice in the methods))

B1: Recombinant human GST-tagged Lypd6 (LY6/PLAUR domain-containing 6), Q86Y78 23-147 (natural protein)
chain: AQSRDFTVKDIIYLHPSTTPYPGGFKCFTCEKAADNYECNRWAPDIYCPRETRYCYTQHTMEVTGNSISVTKRCVPLEECLSTGCRDSEHEGHKVCTSCCEGNICNLPLPRNETDATFATTSPIN
For B1, the attenuation of inward currents induced by the non-specific nAChR agonist DMPP (50 μM) in CA1 hippocampal interneurons in the presence of 6 μM Lypd6, whole-cell patch clamp was 74.8% and the average reduction of inward currents induced by nicotine (100 μM) in CA1 hippocampal interneurons in the presence of 6 μM Lypd6, whole-cell patch clamp at −60 mV was 57.4%.

— publication PMC5017906
